From patent publication US9663800B2, “Alkane exporter and its use” (Nanyang Technological University, priority 2012, dated 2017)

B1: ABC2: Y. lipolytica ABC transporter, SEQ ID NO. 4, GenBank CAG82364, heterologously expressed in S. cerevisiae (protein, listed as Yarrowia lipolytica)
chain: MEQTPPDYTGLDKNIDAEVRSIAESMYQTRREGVNDSDTDEELQRTNTIQPNLNVNPFLDTSDPQLDPLSKEFNSRKWIKTILGLKARFGNSRSISAGVSFKNLSAFGYGGGNDYQKTFTNSVMAIGPMIKKVLGGNKGSEVQILRHFDGLVRAGETCVVLGRPGSGCTTFLKSVACETYGFHLGEKSEWNYQGVPRDVMQKNARGEIVYNAEVDVHFPHLTVGDTLLFAALARTPQNRLEGVSREQHATHVRDVSMAMLGLTHTMDTKVGNDFVRGVSGGERKRVSIAESVVCGAPLQCWDNSTRGLDAANATEFIRSLRLSAEMTDASMFVSLYQASQEAYDMFDKVCVLYEGRQIYFGKTTEAKQFFLDLGFDCADRQTTGDFLTSLTNPIERIIRPGWESRVPRTPDDFEKCWLESEARQLLLQDIDEFNNEFVLGGPALDNFMGLRKDAQAKHTRVQSPYTISWPMQTRLCLWRGFLRIKGDMSTDIATVFGNFVMALVLSSMFYNMPQTTESFFSRGALLFFAILINAFASILEILSLYEQRPIVDKQNRYAMYHPAADALAAIITTFPTKTLTLVSVNLTIYFMTNLRREVGPFFIFFLFSLLCTMAMSMIFRTIGSVTKTLEQALAPASIIILALVIYTGFSLPISYMHGWARWINWLNPVAYGFEAVMVNEFRNREYECSMFVPSGGAYENVSLDYRSCAAVGAEPGLRFVNGDAFINQSYEYYNAHLWRNMGILFGFIIFFGAFYLFAVEYIQGAKSKGEVLVFRKEHIKKQRKEKNGDIESGVTMAGEKGTQESESSNTSINLQAQRGIYQWKDVCYDIKVKDGERRLLDHVDGFVKPGTLTALMGASGAGKTTLLDVLADRKSTGVVTGEMLVNGEHRDGSFQRKTGYVQQQDLHTATATVRESLEFSALLRQPSSIPESEKLAYVDEVIRILEMETYADAVVGVPGEGLNVEQRKRLTIGVELAAKPELLLFLDEPTSGLDSQTAWSIVKLLKKLAANGQAILCTIHQPSAILFQEFDRLLFLASGGRTVYYGDIGPQSSILTEYFERNGADPCPKQGNPAEWMLEVIGAAPGSTAKRDWPVVWAESPERAAKREELDEMARTVERVQTNTTERDSTGYSDSDQFAVGWWTQFKIVSKRQFQALWRTPSYLWSKVFLCAASAIFIGFSFFKAPNDMQGLQNKMFSFFMLFLIFNTVVEQIIPQFDKMRELYEARERSSKTYSWQVFMGSNMVVELIWQFFMGVIVFFCFYYPVGFQWTAEYNDSVHERGGLFFLYVLLLFLYNSTFAHMLIAGIDNKDTAAQIGTLLFTLMLLFCGVLATKEQMPGFWVFMYRVSPLTYFVGGMMATGMGRAPVTCSPHELVRFPAVPGKSCGEYMDGFISALGDSAGYLVSSSADMCEYCPMKSSDQFLDSVDISYTQRWRNWGILWAYPLFNIFAAFALYYFFRVPKKSKAQKA
B2: ABC3: Y. lipolytica ABC transporter, SEQ ID NO. 5, GenBank CAG82646, heterologously expressed in S. cerevisiae (protein, listed as Yarrowia lipolytica)
chain: MTDPVPITQDPTIYSSQQDAEIRSLAESIHSQHSNNSNNSTELTNPYVDTSDPELDPWSGQFNSRKWSRTILGLKRRYGTSKEITAGVSFKNLGAYGYGGGADYQKTVANAVLGLEGVVRTLFHLEKKEDKVQILSDFNGVLWPGETCVVLGRPGSGCTTLLKSIACETYGFQLDKETEWNYQGIPRKIMQKTCRGEIVYNAEVDVHFPHLTVGDTLMFASLARTPQNRFDGVTREQYAKHTRDVTMASLGLSHTLDTKVGNDFVRGVSGGERKRVSIAESIVCGSPLQCWDNSTRGLDAATATEFLRWLRHSAELTGASMFVSLYQASQEAYELFDKVTVLYEGQQIYFGPGEQAKQYFEEMGFECPHRQTTGDFLTSITSPAERIVAPGFEGKTPRTASEFAERWRQSQAYANLQEEIERFNTEFPVGGNRVADIMELKQEKQSDHIKVSSPYTISIPMQVKLCLTRGFQRLRGDLSMALTTVLGNFVVALILSSMFYNMPEDTSSFFSRGALLFFAMLMNAMSSVLEIIVLYELRPIVEKHQRYAMYHPFCEALASIICDFPTKFLTMLCVNVTLYFMSNLRREAGPFFIFFLFTLLCVLAMSMIFRTIAAVTKTLQQALAPAAVIILALIIYTGFTLPISYMRGWARWINYIDPIAYGFEAVMVNEFRNREFPCALFIPQQSTYDQLGSPYQGCMAVGAKPGERFVNGDRYLEMAFDYSQAHLWRNLGIMFGFILFFAFTYLTAVEFIQSAKSKGEVLVFLRSSLKQRKKRAHLMDVEANAEKVGAAQDREILVQQEEGQQEETSSCTPSDSTPKDIFQWKDVCYDIKVKGGEKRLLDNVDGWVKPGTLTALMGCSGAGKTTLLDVLADRKATGVITGDMRVNGQKRDASFQRKTGYVQQQDLHTATSTVREALEFSALLRQPSNVPKAEKIAYVDEVIDILEMQAYADAVVGVPGEGLNVEQRKRLTIGVELAAKPELLLFLDEPTSGLDSQTAWSIICLLKKLANRGQAILCTIHQPSAILFQEFDRLLFMTLGGKTVYYGDIGANSSALINYFESKGADPCPEEANPAEWMLAAIGAAPGSIAKHDWAVVWNESEERARERDLLDKMAEELAAQSTHDEKNELVTSKSVGSSQTSSSSYSAKSQYATSQATQLYYLTKRLWTYYWRSPRYIWSKLLMSIASALFIGFSYYKASQDIQGLQNQMFAFFMLFLIFVIIMVQILPHFVAQRELYEARERSSMAYSWQAFMGSNILVELPWQTLVAVLVFFCFYYPIGLQNNATGHLGERGALFFLLLWSFYVYNSTFAHMMGAAFENKENAATIGYLLFALCLIFCGVLATKEDMPHFWIFMYRVSPLTYLISGLLSAGVGETRVECTDNELVLFKPMNGTNCGKYMHPFMEGLGHTDMPMGYLVDPSATDMCGYCPISNTNGYLDQIDVKYSQRWRNYGILFAYPAFNVFMAFAFYYIFRVPKKSRKQKA

Columns and labels:
S. cerevisiae BY4741 [1] = assay: Alkane susceptibility test in liquid culture; assay type: cell-based, Saccharomyces cerevisiae; settings: for decane tolerance increase: cells expressing the transporter vs. control (0.25% decane), OD600; for survival in 20% undecane / decane concentration tolerated: cells expressing the transporter; for decane concentration tolerated: control 0.25% decane
Description: (§1) FIG. 2. Alkane susceptibility test for S. cerevisiae. The alkane susceptibility was tested in cells expressing ABC2/3 or with empty plasmid. (A) Alkane susceptibility test on agar plate. Serial dilutions of cells expressing ABC2/3 were spotted on agar plates with alkanes (decane, undecane) as vapour phase. Plates were incubated at 28° C. for 2 days. (B) Alkane susceptibility test in liquid culture. Overnight cell culture was diluted into induction medium (final OD600=0.4) with different alkanes (decane & undecane) concentrations. The plates were incubated for 48 hr at 28° C. The OD600 value of each sample was determined and plotted against its corresponding alkane concentration. Symbols for strains are: control sample with empty plasmid (open circle), cells expressing ABC2 (filled circle), cell expressing ABC3 (filled triangle).
Overnight culture was diluted into 5 ml induction medium in 50 ml glass bottle (Sigma) at an initial OD600 of 0.4. Alkanes were added as different final concentration. Bottles were sealed tightly with butyl rubber stopper (Sigma) and silver aluminum seal (Sigma). Liquid culture was performed at 28° C. with shaking. Growth was monitored by measuring the OD600 at different time point. Cell culture used for time point OD checking was collected from the glass bottle using needle and syringe.
To further analyze the effect of ABC2 and ABC3 toward decane and undecane, alkane susceptibility tests in liquid culture were conducted. […] With the expression of ABC2, decane tolerance was boosted about 80-fold (20% vs. 0.25% decane) and cells can survive in 20% undecane. For ABC3, decane tolerance is increased slightly by about 3-fold (0.75% vs. 0.25% decane) and cells are resistant to 20% undecane. It is apparent that the expression of ABC2 and ABC3 transporters improved the tolerance toward C10 and C11 alkanes.

ABC2 mRNA = assay: Quantitative RT-PCR of ABC2 transcripts after alkane treatment; assay type: cell-based; settings: Y. lipolytica CLIB122, 24 h alkane treated vs. untreated, normalized to actin, p<0.05
Excerpt: FIG. 3. mRNA transcripts levels of ABC2 and ABC3 in Y. lipolytica. Quantitative RT-PCR analysis of ABC2 (A) and ABC3 (B) in Y. lipolytica cells corresponding to treatment with octane, nonane, decane, undecane and dodecane (C8-C12). Each value of qRT-PCR was normalized to β-actin expression levels and expressed as the fold change relative to the levels detected in control samples, which were cells without alkane treatment and set equal to 1. Error bars represent the SD of triplicate.
To assess whether ABC1, ABC2, ABC3 and ABC4 are involved in alkane transport in Y. lipolytica, we analysed the effects of alkanes with different chain length (C8-C12) on the transcription levels of these four ABC transporter genes using quantitative RT-PCR.
Total RNA samples from 24 h alkane treated and untreated Y. lipolytica CLIB122 cells were prepared using RNeasy Mini Kit (Qiagen), followed by cDNA synthesis using H minus Reverse transcriptase kit (Fermentas). Quantitative RT-PCR analysis was performed on a Bio-Rad iQ5 real-time PCR detection system using SsoFast EvaGreen Supermix kit (Bio-Rad). The actin gene (YALI0D08272g) was used as reference gene for Y. lipolytica. Relative mRNA levels were derived using comparative CT method.

S. cerevisiae BY4741 [2] = assay: Intracellular alkane accumulation (GC-FID) in cells expressing ABC2/3; assay type: cell-based, Saccharomyces cerevisiae; settings: S. cerevisiae BY4741 expressing the transporter, 48 h, control with empty plasmid; for lower intracellular decane level relative to the control: 0.5% decane; for reduction of intracellular undecane level compared to the control sample: 20% undecane
Description: FIG. 1. Intracellular alkane accumulation by ABC2 and ABC3. S. cerevisiae BY4741 with and without ABC2/3 were cultured under exposure of 0.5% alkane or 20% undecane. After 48 h incubation, intracellular alkane levels were measured. Intracellular alkane levels were normalized to that of control carrying empty plasmid. Data shown are the mean±SD of four biological replicates.
Intracellular alkane accumulation was analysed with GC-FID after 48 h incubation with 0.5% decane or 20% undecane.
After induction for 48 h with or without addition of alkanes, S. cerevisiae cells transformed with pYES2, pYES2ABC2 and pYES2ABC3 were harvested at 6000 g for 5 min at 4° C. After washing with 50 mM Tris.Cl, cells were equally divided into two parts, one part for alkane GC analysis and the other for determination of total protein concentration. For GC analysis, cell pellets were re-suspended in freshly prepared Chloroform/Methanol (v/v, 2:1). Dodecane was added into cell suspension as an internal standard. Acid-washed glass beads were added until the suspension was covered. Cells were then lysed by mechanical agitation using FastPrep-24 (MPBio) for 6 min at 6 m/s. The crude extract was obtained by pipette. After addition of autoclaved ddH2O, the crude extract was emulsified for 10 min by inversion. After centrifuge, the crude extract was separated into two phases. The bottom phase containing alkane was transferred into a new 1.5 ml microcentrifuge tube and purified as above with HPLC grade chloroform and autoclaved ddH2O until particulate matter was no longer observable. The purified solution was transferred into a clear GC vial for GC analysis. To check the total protein concentration, Cell pellets were re-suspended into 50 mM Tris.Cl and lysed via mechanical agitation with acid-washed glass beads using FastPrep-24 for 6 min at 6 m/s. Protein concentration of obtained crude extract was determined using the Bradford protein assay (Bio-Rad). Intracellular alkane levels were normalized to internal standard and cell lysate protein content.

S. cerevisiae BY4741 [3] = assay: Alkane susceptibility test on agar plate; assay type: cell-based, Saccharomyces cerevisiae; settings: cells expressing the transporter, 28° C., 2 days; for cell tolerance toward decane: decane as vapour phase; for cell tolerance toward undecane: undecane as vapour phase
Description: as §1
Alkane susceptibility test on plates was performed according to the methods of Mauersberger et al.. Exponentially growing cells in induction medium were centrifuged and re-suspended with induction medium at OD600=1. Ten microliter aliquots of successive 10-fold dilutions (non diluted, 10-1, 10-2, 10-3) of cells were spotted onto the induction medium plate. Medium chain alkanes were supplied as vapour phase by placing 200 μl alkane on a sterile filter paper in the lid of the petri dish. Plates were incubated at 28° C. for 2 days.
Toxicity test was implemented to study the effect of ABC2 and ABC3 on the tolerance of the cells toward alkanes. The toxic effects of alkanes on S. cerevisiae with ABC2 and ABC3 were measured through alkane susceptibility test on agar plates. […] It was observed that the expression of ABC2 would lead higher tolerance toward decane than ABC3.

| Molecule | alkane concentration causing a significant decrease in viability of the control cells (S. cerevisiae BY4741 [1]; control cells with empty plasmid, 48 hr, 28° C.) [%] | mRNA levels of ABC2 (ABC2 mRNA) | lower intracellular decane level relative to the control (S. cerevisiae BY4741 [2]) [fold] | reduction of intracellular undecane level compared to the control sample (S. cerevisiae BY4741 [2]) | decane tolerance increase (S. cerevisiae BY4741 [1]; 48 hr, 28° C.) | survival in 20% undecane (S. cerevisiae BY4741 [1]) | decane concentration tolerated (S. cerevisiae BY4741 [1]; 48 hr, 28° C.) [%] | cell tolerance toward decane (S. cerevisiae BY4741 [3]) | cell tolerance toward undecane (S. cerevisiae BY4741 [3]) |
| --- | --- | --- | --- | --- | --- | --- | --- | --- | --- |
| CCCCCCCCCCC [undecane] | 20 | significantly increased |  |  |  |  |  |  |  |
| CCCCCCCC [octane] |  | significantly increased |  |  |  |  |  |  |  |
| B1 |  |  | ~5 | approximately 30 fold | about 80 fold | can survive | 20 | considerably improved | considerably improved |
| B2 |  |  | ~5 | approximately 30 fold | about 3 fold | resistant | 0.75 | considerably improved | considerably improved |
